Measured values as given in patent publication US20120231006A1 (Amgen, published 2012).

Key:
[1] = biological target: T1, hOrai1-mOrai1 ECL2 chimeric protein (human/mouse chimera, UniProt Q96D31 1-301); assay: FACS, 293EBNA; parameters: concentration or dose not given beside the values
T1 construct: human Orai1 with mouse ECL2; also called Ch
Source text: (§1) FIG. 17A-D illustrates the results of FACS analysis showing binding to the indicated mOrai1-hOrai1 ECL2 chimeric mutants expressed on the surface of HEK-293-EBNA cells. Transfected cells were stained first with recombinant monoclonal antibodies then counter-stained with a secondary phycoerythrin-labeled goat (“Gt”) anti-human (“Hu”) IgG F(ab′)₂ antibody fragment and visualized using FACS.
(§2) Representative results of FACS analysis of binding to the mutant hOrai1-mOrai1 ECL2 chimera described above by exemplary anti-hOrai1 antibodies of the present invention are shown in FIG. 17A-D, Table 10A and Table 10B below. Table 10A (Campaign 1) and Table 10B (Campaign 2) show the gain in binding ability of exemplary monoclonal antibodies to hOrai 1-mOrai 1 ECL2 chimera mutants as determined by FACS.

[2] = biological target: T2, hOrai1-mOrai1 ECL2 (…) protein (human/mouse chimera, UniProt Q96D31 1-301); assay: FACS, 293EBNA; parameters: concentration or dose not given beside the values
T2 construct: also called Ch
T2 sequence (Q96D31 other isoform, or with tags, fused parts or gaps): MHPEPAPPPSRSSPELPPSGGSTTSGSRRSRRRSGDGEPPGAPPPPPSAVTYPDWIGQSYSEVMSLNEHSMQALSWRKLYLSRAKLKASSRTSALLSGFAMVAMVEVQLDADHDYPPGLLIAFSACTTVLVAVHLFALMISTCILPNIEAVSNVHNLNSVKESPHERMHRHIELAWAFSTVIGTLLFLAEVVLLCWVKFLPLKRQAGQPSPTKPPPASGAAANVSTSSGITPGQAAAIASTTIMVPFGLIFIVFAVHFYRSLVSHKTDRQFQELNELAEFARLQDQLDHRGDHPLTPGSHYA
Source text: as §1, §2

[3] = biological target: T3, hOrai1-mOrai1 ECL2 (PASGAA) protein (human/mouse chimera, UniProt Q96D31 1-301); assay: FACS, 293EBNA; parameters: concentration or dose not given beside the values
T3 construct: also called Ch
T3 sequence (Q96D31 other isoform, or with tags, fused parts or gaps): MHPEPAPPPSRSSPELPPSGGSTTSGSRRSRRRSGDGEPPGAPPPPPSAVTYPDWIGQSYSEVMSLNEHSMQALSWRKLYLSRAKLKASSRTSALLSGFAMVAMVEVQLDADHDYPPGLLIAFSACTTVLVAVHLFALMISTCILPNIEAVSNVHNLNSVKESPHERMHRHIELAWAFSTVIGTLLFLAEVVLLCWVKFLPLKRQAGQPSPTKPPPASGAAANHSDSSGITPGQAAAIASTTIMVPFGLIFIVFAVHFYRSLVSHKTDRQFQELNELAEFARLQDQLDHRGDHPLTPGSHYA
Source text: as §1, §2

[4] = biological target: T4, hOrai1-mOrai1 ECL2 (AANVST) protein (human/mouse chimera, UniProt Q96D31 1-301); assay: FACS, 293EBNA; parameters: concentration or dose not given beside the values
T4 construct: also called Ch
T4 sequence (Q96D31 other isoform, or with tags, fused parts or gaps): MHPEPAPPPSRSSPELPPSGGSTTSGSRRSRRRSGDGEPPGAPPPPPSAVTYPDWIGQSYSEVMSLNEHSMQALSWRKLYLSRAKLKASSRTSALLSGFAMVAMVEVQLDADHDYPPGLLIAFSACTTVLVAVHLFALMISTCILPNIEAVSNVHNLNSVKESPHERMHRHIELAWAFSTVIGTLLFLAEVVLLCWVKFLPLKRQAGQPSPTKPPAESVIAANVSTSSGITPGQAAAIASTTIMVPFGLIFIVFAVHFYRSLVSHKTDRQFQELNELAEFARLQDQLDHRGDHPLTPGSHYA
Source text: as §1, §2

[5] = biological target: T5, hOrai1-mOrai1 ECL2 (GAA) protein (human/mouse chimera, UniProt Q96D31 1-301); assay: FACS, 293EBNA; parameters: concentration or dose not given beside the values
T5 construct: also called Ch
T5 sequence (Q96D31 other isoform, or with tags, fused parts or gaps): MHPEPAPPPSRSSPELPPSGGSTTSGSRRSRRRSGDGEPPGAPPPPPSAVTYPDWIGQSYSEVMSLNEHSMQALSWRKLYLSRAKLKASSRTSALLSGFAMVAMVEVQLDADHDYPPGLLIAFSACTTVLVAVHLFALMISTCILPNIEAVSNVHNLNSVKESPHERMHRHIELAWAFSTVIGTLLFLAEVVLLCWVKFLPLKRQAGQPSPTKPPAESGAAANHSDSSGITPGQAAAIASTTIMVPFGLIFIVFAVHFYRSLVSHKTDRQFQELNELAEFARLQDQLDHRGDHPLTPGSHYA
Source text: as §1, §2

[6] = biological target: T6, hOrai1-mOrai1 ECL2 (VST) protein (human/mouse chimera, UniProt Q96D31 1-301); assay: FACS, 293EBNA; parameters: concentration or dose not given beside the values
T6 construct: also called Ch
T6 sequence (Q96D31 other isoform, or with tags, fused parts or gaps): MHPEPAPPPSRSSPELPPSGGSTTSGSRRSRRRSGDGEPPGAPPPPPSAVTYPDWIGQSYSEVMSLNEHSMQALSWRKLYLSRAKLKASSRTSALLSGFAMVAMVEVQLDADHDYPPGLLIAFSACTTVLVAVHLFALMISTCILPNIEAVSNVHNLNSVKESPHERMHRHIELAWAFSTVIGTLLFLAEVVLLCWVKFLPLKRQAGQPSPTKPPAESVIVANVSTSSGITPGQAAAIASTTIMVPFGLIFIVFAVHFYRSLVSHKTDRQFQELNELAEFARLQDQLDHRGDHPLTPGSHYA
Source text: as §1, §2

[7] = biological target: T1, hOrai1-mOrai1 ECL2 chimeric protein; assay: FACS, 293EBNA; parameters: concentration or dose not given beside the values; remark: listed apart in the source
Source text: (§3) FIG. 16A-D illustrates the results of FACS analysis showing binding to the indicated mOrai1-hOrai1 ECL2 chimeric mutants expressed on the surface of HEK-293-EBNA cells. Transfected cells were stained first with recombinant monoclonal antibodies then counter-stained with a secondary phycoerythrin-labeled goat (“Gt”) anti-human (“Hu”) IgG F(ab′)₂ antibody fragment and visualized using FACS. In FIG. 16B and FIG. 16D, The values of Relative Fluorescence Intensity as Percent of Control (RFI-POC) are calculated from the relative fluorescence intensity geometric mean (Geo Mean). The geometric mean is an average calculated by multiplying a series of numbers and taking the nth root where n is the number of numbers in the series. It is a statistical average of a set of transformed numbers often used to represent a central tendency in a highly variable data set that minimizes the effects of extreme values.
(§4) Table 11A and Table 11B feature a schematic representation of the POC data from FIG. 16B and FIG. 16D, respectively, where the binding results are recorded as (+++) denoting binding POC from 40% to 100%, (++) for POC of 5% to less than 40%, (+) for POC from 1% to less than 5% and (−) as lack of binding with POC less than 1%.

[8] = biological target: T7, mOrai1-hOrai1 ECL2 (…) protein (human/mouse chimera, UniProt Q8BWG9 1-304 (mouse entry)); assay: FACS, 293EBNA; parameters: concentration or dose not given beside the values
T7 construct: also called Ch
Source text: as §3, §4
T7 sequence (Q8BWG9 other isoform, or with tags, fused parts or gaps): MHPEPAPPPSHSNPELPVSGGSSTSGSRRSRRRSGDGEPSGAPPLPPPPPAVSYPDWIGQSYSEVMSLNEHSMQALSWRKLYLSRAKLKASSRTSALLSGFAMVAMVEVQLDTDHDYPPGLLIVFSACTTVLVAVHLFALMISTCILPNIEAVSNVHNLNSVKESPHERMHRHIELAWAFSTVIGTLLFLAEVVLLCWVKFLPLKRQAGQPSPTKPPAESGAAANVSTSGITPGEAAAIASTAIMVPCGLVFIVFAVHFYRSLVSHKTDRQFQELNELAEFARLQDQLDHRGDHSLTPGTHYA

[9] = biological target: T8, mOrai1-hOrai1 ECL2 (SPTKPPAE) protein (human/mouse chimera, UniProt Q8BWG9 1-304 (mouse entry)); assay: FACS, 293EBNA; parameters: concentration or dose not given beside the values
T8 construct: also called Ch
T8 sequence (Q8BWG9 other isoform, or with tags, fused parts or gaps): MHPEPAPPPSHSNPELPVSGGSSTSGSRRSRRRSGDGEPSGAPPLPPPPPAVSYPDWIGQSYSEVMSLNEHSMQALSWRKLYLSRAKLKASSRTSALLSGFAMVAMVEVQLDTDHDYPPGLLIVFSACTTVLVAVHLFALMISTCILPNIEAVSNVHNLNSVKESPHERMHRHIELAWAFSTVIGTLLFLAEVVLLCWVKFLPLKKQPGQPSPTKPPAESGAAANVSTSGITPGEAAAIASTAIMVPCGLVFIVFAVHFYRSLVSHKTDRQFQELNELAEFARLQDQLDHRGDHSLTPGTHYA
Source text: as §3, §4

[10] = biological target: T9, mOrai1-hOrai1 ECL2 (KPPAE) protein (human/mouse chimera, UniProt Q8BWG9 1-304 (mouse entry)); assay: FACS, 293EBNA; parameters: concentration or dose not given beside the values
T9 construct: also called Ch
T9 sequence (Q8BWG9 other isoform, or with tags, fused parts or gaps): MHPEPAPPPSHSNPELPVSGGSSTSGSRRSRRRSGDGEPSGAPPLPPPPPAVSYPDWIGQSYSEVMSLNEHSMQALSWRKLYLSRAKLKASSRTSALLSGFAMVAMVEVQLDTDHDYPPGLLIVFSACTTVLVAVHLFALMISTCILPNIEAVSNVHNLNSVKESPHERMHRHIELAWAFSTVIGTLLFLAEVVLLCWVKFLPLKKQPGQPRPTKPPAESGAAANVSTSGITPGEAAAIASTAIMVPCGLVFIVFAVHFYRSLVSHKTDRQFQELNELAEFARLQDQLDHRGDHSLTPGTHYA
Source text: as §3, §4

[11] = biological target: T10, mOrai1-hOrai1 ECL2 (…) protein (human/mouse chimera, UniProt Q8BWG9 1-304 (mouse entry)); assay: FACS, 293EBNA; parameters: concentration or dose not given beside the values; remark: listed apart in the source
T10 construct: also called Ch
Source text: as §3, §4
T10 sequence (Q8BWG9 other isoform, or with tags, fused parts or gaps): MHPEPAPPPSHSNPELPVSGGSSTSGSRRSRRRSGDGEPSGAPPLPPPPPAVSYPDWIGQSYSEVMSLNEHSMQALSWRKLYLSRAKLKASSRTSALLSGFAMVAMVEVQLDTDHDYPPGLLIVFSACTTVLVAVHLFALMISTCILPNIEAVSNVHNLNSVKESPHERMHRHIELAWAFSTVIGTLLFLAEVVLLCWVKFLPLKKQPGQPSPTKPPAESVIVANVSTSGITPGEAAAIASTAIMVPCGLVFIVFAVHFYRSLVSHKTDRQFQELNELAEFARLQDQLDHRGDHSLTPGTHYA

[12] = biological target: T11, mOrai1-hOrai1 ECL2 (…) protein (human/mouse chimera, UniProt Q8BWG9 1-304 (mouse entry)); assay: FACS, 293EBNA; parameters: concentration or dose not given beside the values; remark: listed apart in the source
T11 construct: also called Ch
Source text: as §3, §4
T11 sequence (Q8BWG9 other isoform, or with tags, fused parts or gaps): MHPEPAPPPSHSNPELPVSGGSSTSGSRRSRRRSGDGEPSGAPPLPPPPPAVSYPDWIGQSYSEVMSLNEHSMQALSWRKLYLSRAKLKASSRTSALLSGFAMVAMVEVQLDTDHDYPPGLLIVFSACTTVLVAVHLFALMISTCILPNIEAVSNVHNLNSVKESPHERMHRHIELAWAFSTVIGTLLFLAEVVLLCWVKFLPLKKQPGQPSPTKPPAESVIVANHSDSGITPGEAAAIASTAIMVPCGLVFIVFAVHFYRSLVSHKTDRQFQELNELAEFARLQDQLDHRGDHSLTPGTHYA

[13] = biological target: T12, mOrai1-hOrai1 ECL2 (…) protein (human/mouse chimera, UniProt Q8BWG9 1-304 (mouse entry)); assay: FACS, 293EBNA; parameters: concentration or dose not given beside the values; remark: listed apart in the source
T12 construct: also called Ch
Source text: as §3, §4
T12 sequence (Q8BWG9 other isoform, or with tags, fused parts or gaps): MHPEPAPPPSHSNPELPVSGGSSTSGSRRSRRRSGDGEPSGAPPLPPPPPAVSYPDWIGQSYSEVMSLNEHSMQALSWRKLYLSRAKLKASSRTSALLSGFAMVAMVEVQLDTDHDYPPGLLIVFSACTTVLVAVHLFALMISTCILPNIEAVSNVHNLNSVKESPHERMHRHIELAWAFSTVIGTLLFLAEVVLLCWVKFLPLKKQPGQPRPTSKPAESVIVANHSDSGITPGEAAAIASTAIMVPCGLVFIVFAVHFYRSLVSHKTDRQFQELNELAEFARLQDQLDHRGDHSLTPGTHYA

[14] = biological target: T13, mOrai1-hOrai1 ECL2 (AESVIV) protein (human/mouse chimera, UniProt Q8BWG9 1-304 (mouse entry)); assay: FACS, 293EBNA; parameters: concentration or dose not given beside the values
T13 construct: also called Ch
T13 sequence (Q8BWG9 other isoform, or with tags, fused parts or gaps): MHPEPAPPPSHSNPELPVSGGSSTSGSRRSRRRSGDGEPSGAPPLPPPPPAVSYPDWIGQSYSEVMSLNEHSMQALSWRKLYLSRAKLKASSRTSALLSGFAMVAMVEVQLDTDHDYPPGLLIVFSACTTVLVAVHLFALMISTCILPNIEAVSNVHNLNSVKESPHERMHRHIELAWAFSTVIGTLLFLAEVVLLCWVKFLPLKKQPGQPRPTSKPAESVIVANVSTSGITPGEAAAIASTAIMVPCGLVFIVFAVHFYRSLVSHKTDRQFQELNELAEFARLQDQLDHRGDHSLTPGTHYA
Source text: as §3, §4

[15] = biological target: T7, mOrai1-hOrai1 ECL2 (…) protein; assay: flow cytometry on HEK-293 cells transfected with the chimera (loss of binding experiment)
[16] = biological target: T8, mOrai1-hOrai1 ECL2 (SPTKPPAE) protein; assay: as above
[17] = biological target: T9, mOrai1-hOrai1 ECL2 (KPPAE) protein; assay: as above
[18] = biological target: T10, mOrai1-hOrai1 ECL2 (…) protein; assay: as above; remark: listed apart in the source
[19] = biological target: T11, mOrai1-hOrai1 ECL2 (…) protein; assay: as above; remark: listed apart in the source
[20] = biological target: T12, mOrai1-hOrai1 ECL2 (…) protein; assay: as above; remark: listed apart in the source
[21] = biological target: T13, mOrai1-hOrai1 ECL2 (AESVIV) protein; assay: as above

T1 sequence (Q96D31 other isoform, or with tags, fused parts or gaps mutant): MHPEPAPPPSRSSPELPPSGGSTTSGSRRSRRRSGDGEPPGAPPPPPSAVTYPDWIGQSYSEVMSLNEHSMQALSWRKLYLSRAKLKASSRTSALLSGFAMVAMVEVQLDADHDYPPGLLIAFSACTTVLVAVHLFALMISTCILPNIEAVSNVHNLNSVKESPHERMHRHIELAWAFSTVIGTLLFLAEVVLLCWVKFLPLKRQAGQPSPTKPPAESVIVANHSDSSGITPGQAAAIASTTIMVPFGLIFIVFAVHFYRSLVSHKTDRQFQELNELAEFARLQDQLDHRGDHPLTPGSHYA

| percent of control (POC) of FACS Geo Mean [1] | percent of control (POC) of FACS Geo Mean [2] | percent of control (POC) of FACS Geo Mean [3] | percent of control (POC) of FACS Geo Mean [4] | percent of control (POC) of FACS Geo Mean [5] | percent of control (POC) of FACS Geo Mean [6] | POC (percent of control, FACS Geo Mean relative to binding to Ch. 1) [7] | POC (percent of control, FACS Geo Mean relative to binding to Ch. 1) [8] | POC (percent of control, FACS Geo Mean relative to binding to Ch. 1) [9] | POC (percent of control, FACS Geo Mean relative to binding to Ch. 1) [10] | POC (percent of control, FACS Geo Mean relative to binding to Ch. 1) [11] | POC (percent of control, FACS Geo Mean relative to binding to Ch. 1) [12] | POC (percent of control, FACS Geo Mean relative to binding to Ch. 1) [13] | POC (percent of control, FACS Geo Mean relative to binding to Ch. 1) [14] | binding result [15] | binding result [16] | binding result [17] | binding result [18] | binding result [19] | binding result [20] | Binder | other results |
| --- | --- | --- | --- | --- | --- | --- | --- | --- | --- | --- | --- | --- | --- | --- | --- | --- | --- | --- | --- | --- | --- |
| < 1% | < 1% | < 1% | < 1% | < 1% | < 1% | < 1% | < 1% | < 1% | < 1% | < 1% | < 1% | < 1% | < 1% | no binding | no binding | no binding | no binding | no binding | no binding | mAb 5F7.1 (antibody, human IgG2, lambda, fully human IgG2 lambda, Campaign 2) heavy: QVQLVQSGAEVKKPGASVKVPCKASGYTFTDYYINWVRQAPGQGLEWMGWINPNNGGTNYAQKFQGRVTMTRDTSISTAYMELRRLRSDDTAVYYCARERGGYEDWFDPWGQGTLVTVSSASTKGPSVFPLAPCSRSTSESTAALGCLVKDYFPEPVTVSWNSGALTSGVHTFPAVLQSSGLYSLSSVVTVPSSNFGTQTYTCNVDHKPSNTKVDKTVERKCCVECPPCPAPPVAGPSVFLFPPKPKDTLMISRTPEVTCVVVDVSHEDPEVQFNWYVDGVEVHNAKTKPREEQFNSTFRVVSVLTVVHQDWLNGKEYKCKVSNKGLPAPIEKTISKTKGQPREPQVYTLPPSREEMTKNQVSLTCLVKGFYPSDIAVEWESNGQPENNYKTTPPMLDSDGSFFLYSKLTVDKSRWQQGNVFSCSVMHEALHNHYTQKSLSLSPGK light: QSVLTQPPSVSGAPGQRVTISCTGSSSNIGAGFDVHWYQQLPVTAPKLLIYGNRNRPSGVPARFSGSKSGTSASLAITGLQAEDEAVYYCQSYDSSLTVFGGGTKLTVLGQPKANPTVTLFPPSSEELQANKATLVCLISDFYPGAVTVAWKADGSPVKAGVETTKPSKQSNNKYAASSYLSLTPEQWKSHRSYSCQVTHEGSTVEKTVAPTECS | binding result [21]: no binding |
| < 1% | < 1% | < 1% | < 1% | < 1% | < 1% | < 1% | < 1% | < 1% | < 1% | < 1% | < 1% | < 1% | < 1% | no binding | no binding | no binding | no binding | no binding | no binding | mAb 5A4.2 (antibody, human IgG2, lambda, V domains shown, fully human IgG2 lambda, Campaign 2) VH: QVQLVQSGAEVKKPGASVKVSCKASGYTFTDYYMNWVRQAPGQGLEWMGWINPNSGGTKYAQKFQGRVTMTRDTSIRTAYMELSRLRSDDTAVYYCSREYGGNSDWFDPWGQGTLVTVSS VL: QSVLTQPPSVSGAPGQRVTISCTGSSSNIGAGYDVHWYQQLPGTAPKLLIYGNSNRPSGVPDRFSGSKSGTSASLAITGLQAEDEADYYCQSYDNRLSDSVVIGGGTKLTVQG | binding result [21]: no binding |
| < 1% | < 1% | < 1% | < 1% | < 1% | < 1% | < 1% | < 1% | < 1% | < 1% | < 1% | < 1% | < 1% | < 1% | no binding | no binding | no binding | no binding | no binding | no binding | mAb 5C1.1 (antibody, human IgG2, lambda, V domains shown, fully human IgG2 lambda, Campaign 2) VH: QVQLVQSGAEVKKPGASVKVSCKASGYTFTDYYMNWVRQAPGQGLEWMGWINPNSGGTKYAQKFQGRVTMTRDTSIRTAYMELSRLRSDDTAVYYCAREYGGNSDWFDPWGQGTLVTVSS VL: QSVLTQPPSVSGAPGQRVTISCTGSSSNIGAGYDVHWYQQLPGTAPKLLIYGNSNRPSGVPDRFSGSKSGTSASLAITGLQAEDEADYYCQSYDNRLSDSVVIGGGTKLAVQG | binding result [21]: no binding |
| < 1% | < 1% | < 1% | < 1% | < 1% | < 1% | < 1% | < 1% | < 1% | < 1% | < 1% | < 1% | < 1% | < 1% | no binding | no binding | no binding | no binding | no binding | no binding | mAb 5F2.1 (antibody, human IgG2, lambda, V domains shown, fully human IgG2 lambda, Campaign 2) VH: QVQLVQSGAEVKKPGASVKVSCKASGYTFTDYYMNWVRQAPGQGLEWMGWINPNSGGTHYAQKFQGRVTMTRDTSISTAYMELSRLRSDDTAVYYCAREYGGYSDWFDPWGQGTLVTVSS VL: QSVLTQPPSVSGAPGQRVTISCTGSRSNIGAGYDVHWYQQLPRTAPKLLIYDNSNRPSGVPDRFSGSKSGSSASLAITGLQAEDEADYYCQSYDNSLSDSVLIGGGTKLTVLG | binding result [21]: no binding |
